Among the data in patent CN101066999A are fold higher sensitivity for human OPN than the commercial mAb MAB14331 and 灵敏度 (detection sensitivity for OPN) values, retold here.

Substrate in assay [1]: 人OPN (Osteopontin, R&D Systems) (human) (UniProt P10451)
Kind of assay: sandwich ELISA: mAbs coated at 1.0 μg/ml; OPN at 6.25-100 pg/mL for this mAb and 6.25-100 ng/mL for the commercial mAb.

Substrate in assay [2]: 人OPN (Osteopontin, R&D Systems) (human) (UniProt P10451)
Kind of assay: sandwich ELISA: mAb coated at 1.0 μg/ml, OPN standard, rabbit anti-human OPN polyclonal serum as detector. A general note: In an ELISA, binding on a coated surface is turned into a signal by an enzyme label.

B1: 重组抗OPN单克隆抗体 7G2 (antibody, V domains shown)
VL: DILMTQTPLSLPVSLGDQASISCRSSQSLVHSNGNTYLHWYLQKPGQSPKLLISKVSNRFSGVPDRFSGSGSGTDFTLKISRVEAEDLGVYFCSQSTHVPWTFGGGTKLEIKR
VH: MAQVQLEQSGPELVKPGASVKMSCKSSGYTFTTYVMHVKQKPGQGLEWIGYINPYNDGSKYNEKFKGKATLTSDKSSNTAYMELSSLTSEDSAVYYSDSHYGGSPAYWGQGTLVTVSA
For the molecule B1, the fold higher sensitivity for human OPN than the commercial mAb MAB14331 in assay [1] came to 1000 fold. For the same molecule, the 灵敏度 (detection sensitivity for OPN) in assay [2] stood at 6.52 pg/mL.
